Source: the nanobody polyreactivity screen of Harvey et al. (2022)

Assay: yeast display, Sf9 membrane polyspecificity reagent, FACS + sequencing; frameworks hold sequencing errors
Procedure, shortened: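 Genes from sorted yeast were amplified by colony PCR, read by MiSeq 2 × 250 sequencing and filtered on CDR length. These cells carried a synthetic nanobody library in Saccharomyces cerevisiae BJ5465 and were sorted by FACS into low and high (top ~1%) gates on anti-HA and streptavidin fluorescence. Polyreactivity is labelled according to the gate of origin.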

Row | Sequence | polyreactivity (PSR sort gate)
1 | QVQLVESGGGLVQAGGSLRLSCAASGRIFAYYAMEWYRQAPGKERELVAAITRSGARTYYADSVKGRFTISRDNAKNSVYLQMNSLKPEDTAVYYFAAEGVRIGTRYDYWGQGTQVTVSS | high polyreactivity
2 | QVQLEESGGGLVQAGGSLRLSCAASGSNFSRYAMGWYRQAPGKERELVAAISWAGNTYYADSVKGRFTISRDNAKNTVYLQMNSLKPEDTAVYYCNADRVRYLFTRYDYWGQGTQVTVSS | high polyreactivity
3 | QVQLEESGGGLVQAGGSLRLSCAASGRIFWANAMGWSRQAPGKERELVAAINRRTGITYYADSVKGRFTISRDNAKNTVYLQMNSLKPEDTAVYYCNAGSSPIRQYYGQVWKKGGYWGQGTQVTVSS | high polyreactivity
4 | QVQLVESGGGLVQAGGSLRLSCAASGSIFNPNAMGWYRQAPGKERELVAAISYSDATTYYADSVKGRFTISRDNAKNTVYLQMNSLKPEDTAVYYCAAEPAAGDYDYWGQGTQVTVSS | high polyreactivity
5 | QVQLEESCGGLVQAGGSLRLSCAAYGRIFGNYAMGWYRQATGKETELVAAITRGSTYYADSVKGRFTISRDNSKNTVYLQMNSLKPEDTAFYYCNARPRVPGVLYLYDYWGQGTQVTVSS | high polyreactivity
6 | QVQLVESGGGLVQAGGSLRLSCAASGSTFDTYTRGWYRQAPGKERELVAAITTSGGSTYYADSVKGRFTISRDNAKNTVYLQMNSLKPEDTAVYYCAADFFPGGYPEMDYWGQGTQVTVSS | high polyreactivity
7 | QVQLVESGGGLVQAGGSLRLSCAASGSIFYLNAMGWYRQAPGKERELVAAISKRGSRTYYADSVKGRFTISRDNAKNTVYLQMNSLKPEDTAVYYCNALDTPGYNTEPARQYDHWGQGTQVTVSS | high polyreactivity
8 | QVQLVESGGGLVQAGGSLRLSCAASGITIRYNAMGWYRQAPGKERELVAAISRGGDRTYYADSVKGRFTISRDNAKNTVYLQMNSLKPEDTAVYYCAADWSEKYEYWGQGTQVTVSS | high polyreactivity
9 | QVQLVEAGGGLVQAGGSLRISCAASGITFLSNAMGWYRQAPGKEMELVAVITIGGSTYYADSVKGRFTISRDNAKNTVFLQLNSLKPEDTAVYYCAVELVAVPDRRFNYWGQGTQVTVSS | low polyreactivity
10 | QVQLVESGGGLVQAGGSLRLSCAASGFTFRVNAMGWYRQAPGKERELVAAISSGGSTNYADSVKGRFTISRDNAKNTVYLQMNSLKPEDTAVYYCAKRFKYIYYWGQGTQVTVSS | high polyreactivity
11 | QVQLVESAGGLVQAGGSLLLSCAASGSTFGTYAMGWYRQAPGKERELVAAISTGGSTYYADSVKGRFTISRDNAKNTVYLQMNSLKPEDTAVYYCAALAEYVRRASDYWGQGTQVTVSS | low polyreactivity
12 | QVQLVESGGGLFQAGGSLRLSCAANGSIFDYYAMGWYRQSPGKERELVAAITRSGVRTYYADSVKGRFTISRDNAKNTVYLQMNSMKPEDTAVYYCGAVYYPLSFDNDYWGQGTQVTVSS | high polyreactivity
13 | QVQLVESGGGLVQAGGSLRLSCAASGRIFFVNTMGWYRQAPGNERELVATLSWSGGSTYYADSVKGRFTISRDNAKNTVYLQMNSLKPEDTAVYYCAAVGYTTYRRYDYWGQGTQVTVSS | low polyreactivity
14 | QVQLVESGGGLVQAGGSLRLSCAASGITFQRYAMGWYRQAPGKERELVAAISTNGGTTYYADSVKGRFTISRDNAKNTVYLQMNSLKPEDTAVYFCNAESGYVYYIRYNYWGQGTQVTVSS | high polyreactivity
15 | QVQLEESGGGLVQAGGSLRLSCAASGSTIPPYAMGWYRQAPRKERELVAAITSGGSTYYADSVKGRFTISRDNAKNTVYLQMNSLKPEDTAVYYCAASWDPWEYDYWGQGTQVTVSS | low polyreactivity
16 | QVQLVESGGGLDQAGGSLRLSCAASGAIFPIYAMGWYRQAPGKERELVAAINRSGGSTYYADSVKGRFTISRDTAKNTVYLQMNSLKPEDSAVYYCNADYGYHNQLFWGYYGWSSDHWGQGTQVTVSS | low polyreactivity
17 | QVQLVESGGGLVQAGGSLRLSCAASGRIFGTYTKGWYRQAPGKERELVAAITTGGITNYADSVKGRFTISRDNAKNTVYLQMKSLKPEDTAVYYCNARWDYGAYEYWGQGTQVTVSS | low polyreactivity
18 | QVQLVASGGGLVQAGGSLRLSCAASGRIFSSNAMGWSRQAPGKEWELVAAITKSGGGTYYADSVKGRFTISRDNAKNTVYLQLNSLKPEDTAVYYCAKGQYRSSGYDYWGQGTQVTVSS | low polyreactivity
19 | QVQLVESGGGLVQAGGSLRLSCAASGFTFVSYAMGWYRQEPGKEREFVASISARGGNTFYADSVKGRFTISRDNAKNTVYLQMNSLKPEDTAVYYCAKRGPYGTGYGYWGQGTQLTVSS | high polyreactivity
20 | QVQLVESGGGLVQAGGSLRLSCAASGSTFVVNAMGWYRQAPGKERELVAAIRGSAGSTYYADSVKGRFTISRDNAKNTVYLQMNSLKPEDTAVYYCAAYYRRYKSKYDYWGQGTQVTVSS | high polyreactivity
21 | QVQLVESGGGLVQAGGSLRLSCAASGSTSVINAMGGNRQAPGKERELVAGISGSGGSTYYADSVKGRFTISRDNAKNTVYLLMNSLKPEDTAVYYCAKRFYRPVPGGYYWGQGTQVTVSS | high polyreactivity
22 | QVQLVESGGGLVQAGGSLRLSCAASGNTIRVYAMGWYRQAPGKERELVAAITWSGSRTYYADSVKGRFTISRDNAKNTVYLQMNSLKPEDTAVYYCAARFVRPAYNYWGQGTQVTVSS | high polyreactivity

Row | Sequence | polyreactivity (PSR sort gate)
23 | QVQLVESGGGLVQAGGSLRLSCAASGRIFTSNAMGWYRQAPGKERELVAAISSSGTRTYYADSVKGRFTISRDNAKNTVYLQMNSHKPEDTAVYYCASGAPSLKYEYWGQGTQVTVSS | high polyreactivity
24 | QVQLVESGGGVVQAGGSLRLSCAASGRTFWRYAMGWYRQAPGKERELVAAITSGGGSTYYADSVKGRFTISRDNAKNTVYLQMNSLKPEDTAVYYCNRAGRGSSFKGDYWGQGTQVTVSS | high polyreactivity
25 | QVQLVESGGGLVQAGGTLRLSCAASGYTFYFYAMGWYRQAPGKEREFVAAIRSSGGRTYYADSVKGRFTISRDNAKNTVYLQMNCLKPEDTAVYSCAAAGYYYSVDGAGPRYDYWGQGTQVTGSS | low polyreactivity
26 | QVQLVESGGGLVQAGGSLRLSCAASGRILAYYAMAWYRQAPGKERELVAAITSGGGSTYYADSVKGRFTISRDNAKNTVYLQMNSLKPEDTAVYYCAADAYVSSQPMDYWGQGSQVTVSS | high polyreactivity
27 | QVQLVESGGGLFQAGGSLRLSCAASGFIFLVNAMGWYRPAPGKERELVAAISKSTGGTYYADSVKGRFTISRDNAKNTVYLQMYSLKPEDTAVYSCAADEVYPVQRDMDYWGQGTQETVSS | low polyreactivity
28 | QVQLVESGGGLVQAGGSLRLSCAASGFIFSNAMGWYRQAPGKERELVAAISRSGGSTYYADSVKGRFTISRDNAKNTVYLQMNSLKPEDTAVYYCGARSYPRSPVRYDYWGQGTQVTVSS | high polyreactivity
29 | QVQLVESGGGLVQAGGSLRLSCAASGSTFGSNAMGWYRQAPGKERELVAAISSSGSTYYADSVKGRFTISRDNAKNTVYLQMNSLKPEDTAVYYSAAPGSPYGYWGQGTQVTVSW | high polyreactivity
30 | QVQLVESGGGLVQAGGSLRLSCAASGRTFAPYVMGWYRQAPGKERELVAAITWSGGSTYYADSVKGRFTISRDNAKKTVYLQMNSLKPEDTAVYYCAVKGAGGPKYDYWGQGTQVTVSS | high polyreactivity
31 | QVQLVESGGGLVQAGGSIRLSCAASGSTIGKNVMGWYRQAPGKERELVAAISARGGRTYYGDSVKGRFTISRDNAKNTVYLQMNSLKPVDTAVYYCNTERSYTGTGRYHSSTAYGYWGQGTQVTVSS | high polyreactivity
32 | QVQLVESGGGLVQAGGSLRLSCAASGRTLKYNAMGWYIQAPGKERELVAGISWSGTRTYYADSVKGRFTISRDIAKNTVYLQMNSLKPEETAVYYCAAYSYLYRSSGFRYNYWGQGTPVTVSS | high polyreactivity
33 | QVQLVESGGRLVQAGGSLRLSCAAAAITFYLYAMGRYRQAPGKERELVAAISSSGGSTYYADSVKGRFTISRDNAKNTVYLQINSLKPEDTAVYYCNARRRTVPYRYDYWGQGTQVTVSS | high polyreactivity
34 | QVQLVESGGGLVQAGGSLRLSCAASGFTLQQYTMGWYRQAPGKERELVAAISTSGVRTYYADSVKGRFTISRDNAKNTVYLQMNSLKPEDTAVYYCNAKVRKSRFYYWGQGTQVTVSS | high polyreactivity
35 | QVQLVESGGGLVQAGGSLRLSCAASGSTFQYYAMGWYRQAPGKERELVAAISYSSGTTYYADSVKGRFTISRDNAKNTVYLQMNSLKPEDTAVYYCARPARYSYPTSTAFDYWGQGTQVTVSS | low polyreactivity
36 | QVQLVESGGGLVQAGGSLRLSSAASGSILGDYGMGWYRQAPGKERELVAAITWNGDSTYYADSVKGRFTISRDNAKNTVYLQMNSLKPEDTAVYYCAADLQDYKYYPWYGYWGQGTQVTVSS | low polyreactivity
37 | QVQLVESGGGVVQAGGSLRLSCAASGIIFDYYAMGLYRQAPGKERELVAAITSGGSTYYADSVKGRFTISRDNAKNSVYFQMKSLKAEDTAVYFCAAVYPRVRYDYWGQGTQVNVSS | high polyreactivity
38 | QVQLVESGGGLVQAGGSLRLTCAASGIIFYGYAIGWYRQAPGKERQLVAAISSGGGTNYADSVKGRFTISRDNAKNTVYLQMNSLKPEDTAVYYCAARQYRRVKQGNYWGQGTQVTLSS | high polyreactivity
39 | QVQLVESGGGLVQAGGSLRLSCAASGFIFSRYVMGWYRQAPGKERELVAAISRGGSTYYADSVKGRFTISRDNAKNTVYLQMNSLKPEDTAVYYCAVRSTRFLIYYPPYDYWGQGTQVTVSS | high polyreactivity
40 | QVQLVESGGGLVQAGGSLRLSCAASGRIFSKYAMGWYRQAPGKEMELDAAITRSGGSTYYADSVKGRFTISRDNAKNTVYLQMNSLKPEDTAVYYCNAGTYSTSVPYRYNYWGQGTQVTVSS | high polyreactivity
41 | QVQLVESGGGLVQAGGSLRLSCAASGRIFVDNTMGWYRQAPGKERELVAAISRRGTSTYYADSVKGRFTISRDTAKNTVFLQMNSLNPEDTAVYYCAADYYYYDSQQGMDYWGQGTQVTVSS | high polyreactivity
42 | QVQLVESGGGLVQAGGSLRLSCAASGFTFGSYAMGWYRQAPGKERELVAVITRSGRTNYADSVKGRFTISRDNAKNTVYLQMNSLKPEDTAVYYCNADDVDDEVSPDLTEMDYWGQGTQVTVSS | low polyreactivity
43 | QVQLVESGGGLVQAGVSLRLSCAASGFTFTTYVMGSYRQAPGKERELVAAISRRGTSTRYADSVKGRFTISRDNAKNTVYLQMNSLKPEDTAVYYCAADRPYSIVPYDYWGQGTQVTVSS | high polyreactivity
